Paper doi:10.1101/2020.01.24.918300 (bioRxiv, 2020)

Target: the molecule itself
Experiment: single-molecule photobleaching step counting on DNA tightropes

B1: cJun bZIP region fused to mNeonGreen (domain or fragment)
chain: RIKAERKRMRNRIAASKCRKRKLERIARLEEKVKTLKAQNSELASTANMLREQVAQLKQKVMNH
  stoichiometry N: 2
